Reference: PMC7836013, “Characterization of Formononetin Sulfonation in SULT1A3 Overexpressing HKE293 Cells: Involvement of Multidrug Resistance-Associated Protein 4 in Excretion of Sulfate” (Frontiers in Pharmacology, 2021)

How the values were obtained:
[1] = substrate: COc1ccc(-c2coc3cc(O)ccc3c2=O)cc1; assay: Formononetin sulfonation enzyme kinetics in HEK-SULT1A3 cell lysate; type: in vitro ADME, human; details: other: HEK-SULT1A3 cell lysate, Michaelis-Menten, mean ± SD (n = 3); pH 7.4
Procedure: (§1) Enzyme kinetic of formononetin incubated with recombinant human SULT1A3 enzyme (rSULT1A3) was evaluated. The reaction was activated after the coenzyme PAPS (which provides sulfonate group to the substrates) was added. The incubation reaction was conducted in 200 μL potassium phosphate buffer (50 mM, pH 7.4) at 37°C, containing SULT1A3 enzyme (0.1 mg/ml), formononetin (0.16–40 μM), and PAPS (a final concentration of 0.10 mM). After incubation for 120 min, the reaction was terminated by adding 100 μL ice-cold acetonitrile. Then the samples were vortexed and centrifuged at 15,000 g for 15 min. The supernatant was analyzed by HPLC for sulfate quantification. All incubations were performed in triplicate. Preliminary experiments were performed to ensure that the rates of sulfation were determined under linear conditions with respect to incubation time and protein concentration.
The sulfonation rates of formononetin at different concentrations were determined according to the sulfonation assay protocol. The kinetic model Michaelis-Menten (Eq. 1) was fitted to the data of sulfonation rates vs. formononetin concentrations. […] The intrinsic clearance (CLint) was calculated by Vmax/Km.
Quantification of formononetin sulfate was performed using Agilent 1,260 Infinity II HPLC system with a ZORBAX SB-C18 column (4.6 × 250 mm, 5 μm; Agilent). […] The samples were analyzed using a gradient of ammonium acetate (2.5 mM) in water (mobile phase A) vs. acetonitrile (mobile phase B) at a flow rate of 1.0 ml/min. […]
HEK293 cells were stably transfected with the cDNA of Human SULT1A3 enzyme through the lentiviral transduction approach ([Sun et al., 2015]), which were named as HEK-SULT1A3 cells. The transduction efficiency was evaluated by measuring the SULT1A3 protein levels in both control and transfected cells. The enzyme function of HEK-SULT1A3 cells was further determined using sulfonation assay. […] Then, in order to identify the function of HEK-SULT1A3 cells in sulfate generation, formononetin was incubated with the HEK-SULT1A3 cell lysate and enzyme kinetic was determined as described above.

[2] = substrate: COc1ccc(-c2coc3cc(O)ccc3c2=O)cc1; assay: Formononetin sulfonation enzyme kinetics in recombinant human SULT1A3; type: in vitro ADME; details: other: rSULT1A3, Michaelis-Menten, mean ± SD (n = 3); pH 7.4
Procedure: as §1
The sulfonation rates of formononetin at different concentrations were determined according to the sulfonation assay protocol. The kinetic model Michaelis-Menten (Eq. 1) was fitted to the data of sulfonation rates vs. formononetin concentrations. Model selection was based on visual inspection of the Eadie-Hofstee plot. […] Model fitting and kinetic parameters evaluation were performed using GraphPad Prism software (5.3 version). V=Vmax·[S]/Km+[S] (1) where Vmax is the maximal velocity and Km is the Michaelis constant. The intrinsic clearance (CLint) was calculated by Vmax/Km.
Quantification of formononetin sulfate was performed using Agilent 1,260 Infinity II HPLC system with a ZORBAX SB-C18 column (4.6 × 250 mm, 5 μm; Agilent). The temperature of the column was set at 40 °C. The samples were analyzed using a gradient of ammonium acetate (2.5 mM) in water (mobile phase A) vs. acetonitrile (mobile phase B) at a flow rate of 1.0 ml/min. The gradient elution condition was 15% B at 0–2.0 min, 15–95% B at 2.0–12 min, 95% B at 12–15 min, and 95–15% B at 15–18 min. The waiting time was 7.0 min at 15% B in order to ensure the column pressure is back to a stable state before the next injection. […]

B1: HEK-SULT1A3 cell lysate (Homo sapiens) (protein)
chain: MELIQDTSRPPLEYVKGVPLIKYFAEALGPLQSFQARPDDLLINTYPKSGTTWVSQILDMIYQGGDLEKCNRAPIYVRVPFLEVNDPGEPSGLETLKDTPPPRLIKSHLPLALLPQTLLDQKVKVVYVARNPKDVAVSYYHFHRMEKAHPEPGTWDSFLEKFMAGEVSYGSWYQHVQEWWELSRTHPVLYLFYEDMKENPKREIQKILEFVGRSLPEETMDFMVQHTSFKEMKKNPMTNYTTVPQELMDHSISPFMRKGMAGDWKTTFTVAQNERFDADYAEKMAGCSLSFRSEL
notes: expressed in transfected cells; cell lysate used
In the case of B1, the Km [1] is reported as 6.17 µM, the Vmax [1] is reported as 13.94 pmol/min/mg and the Vmax/Km [1] is reported as 2.26 ± 0.42 µL/min/mg.

B2: Recombinant human SULT1A3 enzymes (rSULT1A3) (Homo sapiens) (protein)
chain: B1 chain
notes: purchased Sekisui XenoTech LCC (Kansas, USA)
In the case of B2, the Km [2] is reported as 6.01 ± 0.97 µM, the Vmax [2] is reported as 145.30 ± 7.91 pmol/min/mg and the Vmax/Km [2] is reported as 24.18 ± 4.13 µL/min/mg.
